Measurements published in patent publication US20260008864A1 (CITY OF HOPE, published 2026).

B1: 3-38BN003 (5F21) (bispecific antibody)
chain: EVQLVESGGGLVQPGRSLRLSCAASGFTFDDYTMHWVRQAPGKGLEWVSDISWNSGSIGYADSVKGRFTVSRDNAKNSLYLQMNSLRGEDTAIYYCAKDMSGYGHYGKYGMDVWGQGTTVTVSSASTKGPSVFPLAPSSKSTSGGTAALGCLVKDYFPEPVTVSWNSGALTSGVHTFPAVLQSSGLYSLSSVVTVPSSSLGTQTYICNVNHKPSNTKVDKKVEPKSCAASGGAGSDVQLQESGGGSVQAGGSLTLSCTASGLLFRLASMGWYRQAPGKERELIATITVGGKTNYKDSVQGRFIITRDNTGDNTKSTVTLQMNRLKPEDTAVYYCNTASPAVGADTWGQGTRVTVSSGAVPLSLYGAGGDIQMTQSPILLSASVGDRVTITCRASQSIRSYLNWYQQRTNGSPRLLIYAASSLQSGVPSRFSGSGSGTDFTLTINSLQPDDEADYYCQQTYSNPPITFGAGTRLEIKRTVAAPSVFIFPPSDEQLKSGTASVVCLLNNFYPREAKVQWKVDNALQSGNSQESVTEQDSKDSTYSLSSTLTLSKADYEKHKVYACEVTHQGLSSPVTKSFNRGEC
notes: Single chain with cleavable linker L2 (MMP-9 site); also called 38N003; CD3HC-L1-CD38nanobody (5F21)-L2-CD3LC
B2: 3-38BN006 (5F21) (bispecific antibody)
chain: EVQLVESGGGLVQPGRSLRLSCAASGFTFDDYTMHWVRQAPGKGLEWVSDISWNSGSIGYADSVKGRFTVSRDNAKNSLYLQMNSLRGEDTAIYYCAKDMSGYGHYGKYGMDVWGQGTTVTVSSASTKGPSVFPLAPSSKSTSGGTAALGCLVKDYFPEPVTVSWNSGALTSGVHTFPAVLQSSGLYSLSSVVTVPSSSLGTQTYICNVNHKPSNTKVDKKVEPKSCAASGGAGSDVQLQESGGGSVQAGGSLTLSCTASGLLFRLASMGWYRQAPGKERELIATITVGGKTNYKDSVQGRFIITRDNTGDNTKSTVTLQMNRLKPEDTAVYYCNTASPAVGADTWGQGTRVTVSSSSGASASAAGGSDIQMTQSPILLSASVGDRVTITCRASQSIRSYLNWYQQRTNGSPRLLIYAASSLQSGVPSRFSGSGSGTDFTLTINSLQPDDEADYYCQQTYSNPPITFGAGTRLEIKRTVAAPSVFIFPPSDEQLKSGTASVVCLLNNFYPREAKVQWKVDNALQSGNSQESVTEQDSKDSTYSLSSTLTLSKADYEKHKVYACEVTHQGLSSPVTKSFNRGEC
notes: Single chain with non-cleavable linker L2; also called 38N006; CD3HC-L1-CD38nanobody (5F21)-L2-CD3LC
B3: 3-38BN002 (5F1O) (bispecific antibody)
chain: EVQLVESGGGLVQPGRSLRLSCAASGFTFDDYTMHWVRQAPGKGLEWVSDISWNSGSIGYADSVKGRFTVSRDNAKNSLYLQMNSLRGEDTAIYYCAKDMSGYGHYGKYGMDVWGQGTTVTVSSASTKGPSVFPLAPSSKSTSGGTAALGCLVKDYFPEPVTVSWNSGALTSGVHTFPAVLQSSGLYSLSSVVTVPSSSLGTQTYICNVNHKPSNTKVDKKVEPKSCAASGGAGSDVQLQESGGGLVQAGHSLRLSCVGSGSRFDNYAMGWFRQAPGKEREFVAAISWSSGTTRYLDTVKGRFTISRDNAKSTVYLQMNSLKPEDTAVYYCAARYQPRYYDSGDMDGYEYDNWGQGTQVTVSSGAVPLSLYGAGGDIQMTQSPILLSASVGDRVTITCRASQSIRSYLNWYQQRTNGSPRLLIYAASSLQSGVPSRFSGSGSGTDFTLTINSLQPDDEADYYCQQTYSNPPITFGAGTRLEIKRTVAAPSVFIFPPSDEQLKSGTASVVCLLNNFYPREAKVQWKVDNALQSGNSQESVTEQDSKDSTYSLSSTLTLSKADYEKHKVYACEVTHQGLSSPVTKSFNRGEC
notes: Single chain with cleavable linker L2 (MMP-9 site); also called 38N002; CD3HC-L1-CD38nanobody (5F1O)-L2-CD3LC
B4: 3-38BN005 (5F1O) (bispecific antibody)
chain: EVQLVESGGGLVQPGRSLRLSCAASGFTFDDYTMHWVRQAPGKGLEWVSDISWNSGSIGYADSVKGRFTVSRDNAKNSLYLQMNSLRGEDTAIYYCAKDMSGYGHYGKYGMDVWGQGTTVTVSSASTKGPSVFPLAPSSKSTSGGTAALGCLVKDYFPEPVTVSWNSGALTSGVHTFPAVLQSSGLYSLSSVVTVPSSSLGTQTYICNVNHKPSNTKVDKKVEPKSCAASGGAGSDVQLQESGGGLVQAGHSLRLSCVGSGSRFDNYAMGWFRQAPGKEREFVAAISWSSGTTRYLDTVKGRFTISRDNAKSTVYLQMNSLKPEDTAVYYCAARYQPRYYDSGDMDGYEYDNWGQGTQVTVSSSSGASASAAGGSDIQMTQSPILLSASVGDRVTITCRASQSIRSYLNWYQQRTNGSPRLLIYAASSLQSGVPSRFSGSGSGTDFTLTINSLQPDDEADYYCQQTYSNPPITFGAGTRLEIKRTVAAPSVFIFPPSDEQLKSGTASVVCLLNNFYPREAKVQWKVDNALQSGNSQESVTEQDSKDSTYSLSSTLTLSKADYEKHKVYACEVTHQGLSSPVTKSFNRGEC
notes: Single chain with non-cleavable linker L2; also called CD3HC-L1-CD38nanobody (5F1O)-L2-CD3LC
B5: 3-38BN001 (5F1K) (bispecific antibody)
chain: EVQLVESGGGLVQPGRSLRLSCAASGFTFDDYTMHWVRQAPGKGLEWVSDISWNSGSIGYADSVKGRFTVSRDNAKNSLYLQMNSLRGEDTAIYYCAKDMSGYGHYGKYGMDVWGQGTTVTVSSASTKGPSVFPLAPSSKSTSGGTAALGCLVKDYFPEPVTVSWNSGALTSGVHTFPAVLQSSGLYSLSSVVTVPSSSLGTQTYICNVNHKPSNTKVDKKVEPKSCAASGGAGSDVQLQESGGGLVQAGGSLRLSCTGSGRTFRNYPMAWFRQAPGKEREFVAGITWVGASTLYADFAKGRFTISRDNAKNTVYLQMNSLKPEDTAVYSCAAGRGIVAGRIPAEYADWGQGTQVTVSSGAVPLSLYGAGGDIQMTQSPILLSASVGDRVTITCRASQSIRSYLNWYQQRTNGSPRLLIYAASSLQSGVPSRFSGSGSGTDFTLTINSLQPDDEADYYCQQTYSNPPITFGAGTRLEIKRTVAAPSVFIFPPSDEQLKSGTASVVCLLNNFYPREAKVQWKVDNALQSGNSQESVTEQDSKDSTYSLSSTLTLSKADYEKHKVYACEVTHQGLSSPVTKSFNRGEC
notes: Single-chain anti-CD3 Fab heavy chain - linker L1 - anti-CD38 nanobody 5F1K - cleavable linker L2 (MMP-9 site) - anti-CD3 light chain; also called 3-38N001; CD3HC-L1-CD38nanobody (5F1K)-L2-CD3LC
B6: 3-38BN004 (5F1K) (bispecific antibody)
chain: EVQLVESGGGLVQPGRSLRLSCAASGFTFDDYTMHWVRQAPGKGLEWVSDISWNSGSIGYADSVKGRFTVSRDNAKNSLYLQMNSLRGEDTAIYYCAKDMSGYGHYGKYGMDVWGQGTTVTVSSASTKGPSVFPLAPSSKSTSGGTAALGCLVKDYFPEPVTVSWNSGALTSGVHTFPAVLQSSGLYSLSSVVTVPSSSLGTQTYICNVNHKPSNTKVDKKVEPKSCAASGGAGSDVQLQESGGGLVQAGGSLRLSCTGSGRTFRNYPMAWFRQAPGKEREFVAGITWVGASTLYADFAKGRFTISRDNAKNTVYLQMNSLKPEDTAVYSCAAGRGIVAGRIPAEYADWGQGTQVTVSSSSGASASAAGGSDIQMTQSPILLSASVGDRVTITCRASQSIRSYLNWYQQRTNGSPRLLIYAASSLQSGVPSRFSGSGSGTDFTLTINSLQPDDEADYYCQQTYSNPPITFGAGTRLEIKRTVAAPSVFIFPPSDEQLKSGTASVVCLLNNFYPREAKVQWKVDNALQSGNSQESVTEQDSKDSTYSLSSTLTLSKADYEKHKVYACEVTHQGLSSPVTKSFNRGEC
notes: also called 3-38N004; CD38-CD3 BIONIC

Columns and labels:
[1] = target: T1, CD38 on cells (Nomo-1, SKM-1, MM1S, THP-1, HL60, PBMC, primary patient samples) (UniProt P28907 1-300); assay: flow cytometry, PBMC treated 1 h with 10 ug/mL of the binder, dot plot CD38-PE against CD3-V450; the C-IgG panel prints 48%; CD3+CD38+ quadrant of this panel: 0%; the filing reads the figure as binding to CD3 and CD38
T1 construct: whole, on cells
Protocol: (§1) The CD3-CD38 compounds were then incubated with PBMCs to assess binding to CD3 and CD38 antigens presented on effector cells.

CD38-Fc [2] = target: T2, CD38-Fc (UniProt P28907 43-300); assay: SPR, CD38-Fc immobilised on CM5 chip, 25 C
T2 construct: Immobilised on a CM5 chip at 200 RU; also called CD38 antigen target; not shown: Fc part
Protocol: (§2) CD38-Fc was immobilized on a CM5 sensor chip at 200 response units (RU) using ECD/NHS coupling. […] These bispecific compounds include a protease cleavage site within one of the linker regions. […] All samples were prepared at concentrations of 30 nM, 10 nM, 3 nM or 1 nM in HBS-EP+ runner buffer at 25° C.

[3] = target: T3, CD3 on cells (PBMC, primary patient samples); assay: flow cytometry, PBMC treated 1 h with 10 ug/mL of the binder, dot plot CD38-PE against CD3-V450; the C-IgG panel prints 25%; the filing reads the figure as binding to CD3 and CD38
T3 construct: whole, on cells
Protocol: as §1

CD3-Fc = target: T4, CD3-Fc; assay: SPR, CD3-Fc immobilised on CM5 chip, 25 C
T4 construct: Immobilised on a CM5 chip at 1000 RU; also called CD3 target
Protocol: CD3-Fc was immobilized on a CM5 sensor chip at 1000 response units (RU) using ECD/NHS coupling methods. […] All samples were prepared at concentrations of 30 nM, 10 nM, 3 nM or 1 nM in HBS-EP+ runner buffer at 25° C.

CD38-Fc [4] = target: T2, CD38-Fc; assay: SPR, CD38-Fc immobilised on CM5 chip, 25 C; ** = kd outside of detectable limits
Protocol: as §2

Row | Binder | CD38+ (% of PBMC in the CD38-PE positive, CD3-V450 negative quadrant) [1] [%] | Kd (CD38-Fc [2]) [nM] | koff (CD38-Fc [2]) [s⁻¹] | kon (CD38-Fc [2]) [M⁻¹ s⁻¹] | CD3 (% of PBMC in the CD3-V450 positive, CD38-PE negative quadrant) [3] [%] | Kd (CD3-Fc) [nM] | koff (CD3-Fc) [s⁻¹] | kon (CD3-Fc) [M⁻¹ s⁻¹] | koff (CD38-Fc [4]) [s⁻¹]
1 | B1 | 15 | 0.478 | 6.84e-05 | 143000 | 12 | 522 | 0.0525 | 101000 | –
2 | B2 | 11 | 0.473 | 7.33e-05 | 155000 | 12 | – | – | – | –
3 | B3 | – | 0.772 | 0.000127 | 165000 | 12 | 530 | 0.0227 | 42900 | –
4 | B4 | – | – | – | 590000 | 11 | – | – | – | < 1e-05
5 | B5 | 1 | 0.946 | 0.000696 | 735000 | 13 | – | – | – | –
6 | B6 | 1 | 0.962 | 0.000711 | 740000 | 11 | – | – | – | –
